Patent publication US20230218738A1 (Pfizer, published 2023)
Where a chain is given by its changes, count along the chain named.

How the values were obtained:
Assay in all cases: BLI (Octet), F on anti-HIS tip, 20 nM mAb
[1] = molecular target: RSV F protein mutant pXCS804 (RSV A2, UniProt P03420 26-109)
[2] = molecular target: RSV F protein mutant pXCS806 (RSV A2, UniProt P03420 26-109)
[3] = molecular target: T1, RSV F protein mutant pXCS851 (RSV A2, UniProt P03420 26-109)
T1 chain 1: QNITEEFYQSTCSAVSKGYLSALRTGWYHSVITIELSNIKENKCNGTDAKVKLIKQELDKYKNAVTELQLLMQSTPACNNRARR
T1 chain 2: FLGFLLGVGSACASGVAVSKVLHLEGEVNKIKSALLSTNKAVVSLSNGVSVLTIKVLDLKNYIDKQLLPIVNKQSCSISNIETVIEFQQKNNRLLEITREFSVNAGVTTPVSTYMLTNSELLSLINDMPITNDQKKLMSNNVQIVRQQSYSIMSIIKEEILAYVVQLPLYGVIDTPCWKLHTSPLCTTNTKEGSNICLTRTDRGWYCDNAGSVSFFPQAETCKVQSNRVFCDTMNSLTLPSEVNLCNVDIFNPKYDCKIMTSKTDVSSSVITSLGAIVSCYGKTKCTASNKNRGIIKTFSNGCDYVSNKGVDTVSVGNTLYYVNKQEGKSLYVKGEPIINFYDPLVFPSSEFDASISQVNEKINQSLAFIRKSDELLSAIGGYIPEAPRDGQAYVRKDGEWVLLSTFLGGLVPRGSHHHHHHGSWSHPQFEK

[4] = molecular target: RSV F protein mutant pXCS873 (RSV A2, UniProt P03420 26-109)
[5] = molecular target: RSV F protein mutant pXCS779 (RSV A2, UniProt P03420 26-109)
[6] = molecular target: T2, RSV F protein mutant pXCS827 (RSV A2, UniProt P03420 26-109)
T2 chain 1: T1 chain 1
T2 chain 2: T1 chain 2 with I160V, S350D

[7] = molecular target: RSV F protein mutant pXCS853 (RSV A2, UniProt P03420 26-109)
[8] = molecular target: RSV F protein mutant pXCS879 (RSV A2, UniProt P03420 26-109)
[9] = molecular target: T3, RSV F protein mutant pXCS856 (RSV A2, UniProt P03420 26-109)
T3 chain 1: T1 chain 1 with S30C, C78T
T3 chain 2: T1 chain 2 with C12I, L52C, I54S

[10] = molecular target: RSV F protein mutant pXCS780 (RSV A2, UniProt P03420 26-109)
[11] = molecular target: RSV F protein mutant pXCS809 (RSV A2, UniProt P03420 26-109)
[12] = molecular target: RSV F protein mutant pXCS740 (RSV A2, UniProt P03420 26-109)
[13] = molecular target: RSV F protein mutant pXCS777 (RSV A2, UniProt P03420 26-109)
[14] = molecular target: RSV F protein mutant pXCS857 (RSV A2, UniProt P03420 26-109)
[15] = molecular target: RSV F protein mutant pXCS805 (RSV A2, UniProt P03420 26-109)
[16] = molecular target: RSV F protein mutant pXCS749 (RSV A2, UniProt P03420 26-109)

B1: AM22 (antibody, V domains shown)
VH: QVQLVQSGAEVKKPGATVKVSCKISGHTLIKLSIHWVRQAPGKGLEWMGGYEGEVDEIFYAQKFQHRLTVIADTATDTVYMELGRLTSDDTAVYFCGTLGVTVTEAGLGIDDYWGQGTLVTVSS
VL: EIVLTQSPGTLSLSPGERATLSCRASQIVSRNHLAWYQQKPGQAPRLLIFGASSRATGIPVRFSGSGSGTDFTLTINGLAPEDFAVYYCLSSDSSIFTFGPGTKVDFK
[1]
  Response (nm shift): 0.267 nm
[2]
  Response (nm shift): 0.152 nm
[3]
  Response (nm shift): 0.508 nm
[4]
  Response (nm shift): 0.192 nm
[5]
  Response (nm shift): 0.125 nm
[6]
  Response (nm shift): 0.45 nm
[7]
  Response (nm shift): 0.484 nm
[8]
  Response (nm shift): 0.351 nm
[9]
  Response (nm shift): 0.568 nm
[10]
  Response (nm shift): 0.29 nm
[11]
  Response (nm shift): 0.185 nm
[12]
  Response (nm shift): 0.172 nm
[13]
  Response (nm shift): 0.121 nm
[14]
  Response (nm shift): 0.563 nm
[15]
  Response (nm shift): 0.173 nm

B2: MPE8 (antibody, V domains shown)
VH: EVQLVESGGGLVKPGGSLRLSCAASGFTFSSYSMNWVRQAPGKGLEWVSSISASSSYSDYADSAKGRFTISRDNAKTSLFLQMNSLRAEDTAIYFCARARATGYSSITPYFDIWGQGTLVTVSS
VL: QSVVTQTPSVSGAPGQRVTISCTGSSSNIGAGYDVHWYQQLPGTAPKLLIYDNNNRPSGVPDRFSASKSGTSASLAITGLQAEDEADYYCQSYDRNLSGVFGTGTKVTVL
notes: also called MPEG
[3]
  Response (nm shift): 1.02 nm
[5]
  Response (nm shift): 0.232 nm
[6]
  Response (nm shift): 0.88 nm
[7]
  Response (nm shift): 0.905 nm
[9]
  Response (nm shift): 1.06 nm
[10]
  Response (nm shift): 0.608 nm
[12]
  Response (nm shift): 0.546 nm
[13]
  Response (nm shift): 0.27 nm
[16]
  Response (nm shift): 0.206 nm
[14]
  Response (nm shift): 1.09 nm
